Test results: patent US20230331824A1 (ROCKEFELLER UNIVERSITY, published 2023)
Where two headings read alike, the source gives them in different places.

What was measured:
[1] = target: T1, recombinant SARS-CoV-2 spike S2-His (SARS-CoV-2, UniProt P0DTC2 686-1213); assay: pull-down on immobilized S2, band quantified
T1 construct: domain: S2

[2] = target: T2, recombinant SARS-CoV-2 spike S1-His (SARS-CoV-2, UniProt P0DTC2 16-685); assay: pull-down on immobilized S1, band quantified
T2 construct: domain: S1

[3] = target: T3, recombinant SARS-CoV-2 spike RBD (untagged) (SARS-CoV-2, UniProt P0DTC2 319-541); assay: SPR
T3 construct: domain: RBD

SARS-CoV-2 spike protein [4] = target: T4, SARS-CoV-2 spike protein (SARS-CoV-2, UniProt P0DTC2 14-1273); assay: cell-based or functional assay
[5] = target: T3, recombinant SARS-CoV-2 spike RBD …; assay: periplasm pull-down on immobilized S1-RBD, SDS-PAGE
[6] = target: SARS-CoV-1 spike on pseudovirus (SARS-CoV-1, UniProt P59594 14-1255); assay: cell-based or functional assay
[7] = target: T3, recombinant SARS-CoV-2 spike RBD …; assay: SPR; remark: listed apart in the source
SARS-CoV-2 spike protein [8] = target: T4, SARS-CoV-2 spike protein; assay: cell-based or functional assay; remark: listed apart in the source

B1: S2-23 (VHH)
VHH: QVQLVESGGGLVQPGGSLRLSCAASGRTFSSAMMGWFRQAPGKEREFVASIDWRYQYRYYADSVKGRFTISRDNAKNMVYLQMNSLKPEDTAVYYCACQIERSGIYHYEDSNKYQSWGQGTQVSVS
notes: also called S2 Nanobody # 23
B1: binds [1].

B2: S2-24 (VHH)
VHH: QVQLVESGGGLVQAGGSLRLSCAASGVTFSSHHMAWYRQTPGKQRELVATLASGGDTNYADSVKGRFTISRDNTKNTIYLQMNSLKPEDTAVYYCNARLWATGFRDYWGQGTQVTVS
notes: also called S2 Nanobody # 24
B2: binds [1].

B3: S1-18 (VHH)
VHH: QVRLVESGGGLVQPGGSLRLSCVVSGVSGSAFRFNRLGWYRQPPGKERELVASISSGGSTNYADSVKGRFTISRDNAKSTVSLQMNSLKPEDTAVYYCNIRADFFSSGRTGDWGQGTQVTVS
notes: also called S1 Nanobody # 18
B3: binds [2].

B4: S2-30 (VHH)
VHH: QVQLVESGGGLVQAGGSLRLSCAASGSTFGNYAMGWYRQPPQAPGNQRDLVAFISTTGSTNYADSVKGRFTISRDNAKNTMYLQMNSLKPEDTAVYYCQAIERIVGYVSWGQGTQVTVS
notes: also called S2 Nanobody # 30
B4: binds [1].

B5: S1-RBD-23 (VHH)
VHH: QVHLVESGGDLVQPGGSLRLSCVASGSGFENNAITWYRQAPGKERELVSGITSGGSTNYADSVKGRFTISRDNAKNTVYLEMNSLKPEDTAVYLCQAVAWDSRRRSVVAFWGQGTQVTVS
B5 showed a Kd [3] of 0.0159 nM, a koff [3] of 4.61e-05 s⁻¹ and a kon [3] of 2.89e+06 M⁻¹ s⁻¹. For the same binder, the “PSV neutralisation IC50” value (SARS-CoV-2 spike protein [4]) was 7.31 nM.

B6: S2-37 (VHH)
VHH: QVQVMESGGGLVQAGGSLRLSCAASTGILGGYDMRWYRQTPGNERELVASISSDGSTNYVDFVKGRFTISSDNAKNTVYLQMDSLKSEDTAVYYCNMRSTYYAIDYWGRGTQVTVS
notes: also called S2 Nanobody # 37
B6: binds [1].

B7: S1-8 (VHH)
VHH: QVQLVESGGGLVQAGGSLRLSCAASGRVLSSYVMGWFRQAPGKEREFVAAIRWNGGSTFYADSVKGRLTISRDNAKNTVYLQMNSLKPEDTAAYYCAASPRTMYDATYYYSRTSYDYWGQGTQVTVS
notes: also called S1 Nanobody # 8
B7: binds [2].

B8: S2-44 (VHH)
VHH: QVQFVESGGGLVQPGGSLRLSCVGSEFTLDNYDIGWFRQAPGKEREWVSCITPRGNIINYADSVKGRFTISRDNAKNTAFLQMNSLKPEDTAVYYCARSSALYDCSQRQTRFFSSWGQGTQVTVS
notes: also called S2 Nanobody # 44
B8: binds [1].

B9: S1-RBD-13 (VHH)
VHH: EVQLVESGGGLVQAGGSLRLSCAAPTLTLSSHTIGWFRQAPGKEREGVSYIPMTGLPIYCRDSVKGRFTISTDNAKNTVYLQMDSLKPEDTAVYYCAALLGVRSRMCPESVYTYWGQGTQVTVS
notes: also called S1-RBD Nanobody # 13
B9: binds [5].

B10: S1-RBD-16 (VHH)
VHH: QVQLVESGGGLVQSGGSLRLSCVASGRGFDRYPMGWFRQAPGKEREFVGGINWNGANTYYADSVKGRFTISRDNTKNTVYLQMNSLKPEDTALYYCAADQHYMGSPPPKEYEYDYWGQGTQVTVS
Work on B10 yielded a Kd [3] of 3.73 nM, a koff [3] of 6.25e-05 s⁻¹ and a kon [3] of 16800 M⁻¹ s⁻¹. For the same binder, the “PSV neutralisation IC50” value (SARS-CoV-2 spike protein [4]) was 79.2 nM.

B11: S2-29 (VHH)
VHH: QVQLVESGGGLVQPGGSLRLSCAASGRIFSSNAMGWYRQAPGKEREWVACISSGSSTNYADSVKGRFTISRDNAKNTVYLQMNSLKPEDTAVYYCISKEVGWCGREGPIGSWGQGTQVTVS
notes: also called S2 Nanobody # 29
B11: binds [1].

B12: S1-1 (VHH)
VHH: QVQLVESGGGLVQAGGSLRLSCAASGMPFSSYAMGWFRQAPGKEREFVAAVNWNGISTYLADSVKGRFTASRDNAKNTAYLQMNSLKPEDTAVYYCAADSKGWSEWGMDYWGKGTLVTVS
B12 was tested, and the “SARS-CoV-1 PSV neutralisation IC50” value [6] was 8.62 nM.

B13: S2-49 (VHH)
VHH: DVQLVESGGGLVQPGGSLRLSCAVSGLTLPYFTISWFRQAPGKEREWVSSSRITGNTYYADSVKGRFTVSRDNAKSTVYLQMNRLKAEDTATYYCASGRNINYYTNSAEYNYWGRGTQVTVS
notes: also called S2 Nanobody # 49
B13: binds [1].

B14: S2-45 (VHH)
VHH: QVQLVESGGGLVQAGGSLRLSCAASGLTFSSRAMAWFRQAPGKEREFVARISWSGRNTYYGDSVKGRFTISRDNAKNTVYLQMSSLEPEDTAVYRCAADQQYYNRYYNDEQGYAFWGQGTQVTVS
notes: also called S2 Nanobody # 45
B14: binds [1].

B15: S2-12 (VHH)
VHH: QVQLVESGGGLVQAGGSLRLSCVASEPTFSSRTMGWFRQAPGKERDFVAAMPWWKGALPNYKDSVKGRFTISIDSAKNTMYLQMNSLKPEDTAVYYCAASKTWSPRTEVATEHEFRGQGTQVTVS
notes: also called S2 Nanobody # 12
B15: binds [1].

B16: S1-13 (VHH)
VHH: EVQLVESGGGLVQPGGSLKLSCAASGFTLDDYTIGWFRQAPGKEREGVSYISSSGSNSYYEDSVKGRFTISRDNAKSTVYLQMNSLKPEDTAVYYCAARRVWQQTIVVRGPVHYEYWGHGTQVTVS
notes: also called S1 Nanobody # 13
B16: binds [2].

B17: S2-34 (VHH)
VHH: QVQLVESGGGLVQTGGSLRLSCAASGITFNTYGMGWYRQAPGKQRELVAGIPSIGNINYARFVQGRFTVSRDDGKKAVYLQMNSLKPEDTAIYYCNLQTRFGTNYWGQGTQVTVS
notes: also called S2 Nanobody # 34
B17: binds [1].

B18: S1-RBD-29 (VHH)
VHH: QVQLVESGGGLVQDGGSLRLSCAASGLASIVFNMGWFRQAPGKEREFVAGILGSGQSTYYGNSVKGRFTISRDSAKNTVYLQMNSLKPEDTAVYYCAAGGRLDLVNTTGGYEPTYWGQGTQVTVS
Binder B18 has a Kd [7] of 2.51 nM, a koff [7] of 0.00135 s⁻¹ and a kon [7] of 536000 M⁻¹ s⁻¹. The “PSV neutralisation IC50” value (SARS-CoV-2 spike protein [8]) was 9.53 nM.

B19: S1-RBD-40 (VHH)
VHH: QVQLVESGGGLVQAGGSLRLSCAASGITFSNYGMVWWRQAPGKQREFVASISSGRDTNYADFVKGRFTISRDNAKNTVHLQMNSLKPEDTAVYYCYTVTDRSDYWGQGTQVTVS
B19 showed a Kd [7] of 0.0371 nM, a koff [7] of 2.77e-05 s⁻¹ and a kon [7] of 747000 M⁻¹ s⁻¹. The “PSV neutralisation IC50” value (SARS-CoV-2 spike protein [8]) was 25.6 nM.

B20: S1-3 (VHH)
VHH: QVQLVESGGGLVQAGGSLRLSCAASGSTFSNTGLGWYRQAPGKQREWVASISPSGSTSYLDSVRGRFIFSRDNAKNIAYLQMNSLKPEDTAVYYCNTLPRSGSWGQGTQVTVS
In the case of B20, the “SARS-CoV-1 PSV neutralisation IC50” value [6] is reported as 4160 nM.

B21: S2-20 (VHH)
VHH: QVQLVESGGGLVQPGGSLRLSCAASGFTLTYYTISWFRQAPGKEREWVSSSRISGNTYYTDSVKGRFTISRDNAKSVVYLQMNSLKPEDTATYYCASGRNIPYDTYTNPTKYDYWGRGTQVTVS
notes: also called S2 Nanobody # 20
B21: binds [1].
